Experimental data taken from patent US20250101133A1 (published 2025).

B1: AbR2DP35, purified His6-tagged nanobody (VHH)
VHH: QVQLQESGGGLVQPGGSLTLSCAASGVMFSTGVMGWYRQAPGKQREAVAAITSGGLTTYKDSVKGRFAISRDNTKSTGYLQMNRLRPEDTAVYYCNVRGYWGQGTQVTVSS
B2: AbR2DP12, purified His6-tagged nanobody (VHH)
VHH: QVQLQESGGGLVQAGGSLRLSCAASGSTSSFNVMAWYHQAPGKQRESVASITSGGITVYRDSVKGRFAISSDNAKNTVFLQMNSLKPEDTGVYYCGGVVDGRVYRGQGTQVTVSS
B3: human NEDP1 (enzyme)
chain: MDPVVLSYMDSLLRQSDVSLLDPPSWLNDHIIGFAFEYFANSQFHDCSDHVSFISPEVTQFIKCTSNPAEIAMFLEPLDLPNKRVVFLAINDNSNQAAGGTHWSLLVYLQDKNSFFHYDSHSRSNSVHAKQVAEKLEAFLGRKGDKLAFVEEKAPAQQNSYDCGMYVICNTEALCQNFFRQQTESLLQLLTPAYITKKRGEWKDLITTLAKK
B4: AbR2DP47, purified His6-tagged nanobody (VHH)
VHH: QVQLQESGGGLVEPGGSLRLSCAASGSISSINVMAWYRQAPGKQRESVAAISSFGITTYSETVKGRFTASRDNAKNTMYLQMNNLKPEDTAVYYCKGPNTDWGQGTQVTVSS
B5: AbR2DP46, purified His6-tagged nanobody (VHH)
VHH: QVQLQESGGGLVQAGGSLRLSCAASGSPFSIGTMAWYRQAPGNQRASVAAITRGGATTYANSVKGRFTVSRDNAKNTVYLQMNSLKPEDTAAYYCSVWAGDRAYWGQGTQVTVSS

Tests used:
Assay in all cases: SPR
[1] = target: T1, recombinant human NEDP1 protein (human, UniProt Q96LD8 1-212)
T1 chain: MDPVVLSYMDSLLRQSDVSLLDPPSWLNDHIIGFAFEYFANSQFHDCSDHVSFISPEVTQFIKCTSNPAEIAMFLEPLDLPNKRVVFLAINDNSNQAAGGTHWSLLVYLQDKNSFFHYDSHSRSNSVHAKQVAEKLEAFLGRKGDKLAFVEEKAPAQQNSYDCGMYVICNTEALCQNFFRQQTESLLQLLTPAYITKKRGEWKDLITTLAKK

[2] = target: Nb19
[3] = target: Nb12
[4] = target: Nb20
[5] = target: Nb6

Binder | Kd [1] [nM] | also measured
B1 | < 0.01 | –
B2 | < 0.01 | –
B3 | – | Kd [2]: 0.196 nM; Kd [3]: 0.33 nM; Kd [4]: 0.203 nM; Kd [5]: < 0.01 nM
B4 | 5.39 | –
B5 | 6.98 | –
